In general, Km refers to the substrate concentration at which the rate is half of its maximum. Broadly, the kcat is the number of substrate molecules converted per active site and unit of time at saturation.

Holding throughout (format): biochemical, Paenibacillus lentus
Substrate in series [1]: Nc1ncnc2c1ncn2[C@@H]1O[C@H](COP(=O)(O)OP(=O)(O)OP(=O)(O)O)[C@@H](O)[C@H]1O
The series can be described thus: Phosphate assay (Malachite green) with UDP, ATP and dAMP, AP1 ("Native"). How it is done: (§1) FIG. 9 depicts (A)Vmax (IU/mg) and (B) KM (μM) activity of AP1 (designated “Native”) and APHT (designated “HT”) on UDP, ATP and dAMP. Assays were performed at 40° C. with p substrate concentration 0-5 mM in Tris buffer pH 8. The enzyme concentration was 2 μg/mL.
(§2) FIG. 10 depicts (A)Vmax (IU/mg) and (B) KM (μM) activity of AP1 (designated “Native”) and APHT (designated “HT”) with UDP, ATP and dAMP. Assays were performed at 50° C. with p substrate concentration 0-5 mM in DEA buffer pH 10. The enzyme concentration was 2 μg/mL.
(§3) Enzymes, including lysozyme and alkaline phosphatase, are recognized as disruptors of bacterial debris and inflammation. These enzymes reduce inflammation, including by lysing the peptidoglycans and LPS of bacteria, thus deactivating them and thereby bypassing the inflammatory response. An alkaline phosphatase was initially identified and modified from Paenibacillus lentus bacteria and expressed for application and use as a farm animal feed additive. This modified alkaline phosphatase is characterized by having a serine (S) replacement for an aspartic acid (D) in the native bacterial alkaline phosphatase protein sequence and is designated herein as AP1. […] The AP1 alkaline phosphate is described including in U.S. Pat. No. 9,326,535 issued May 3, 2016. The sequence of AP1 is as follows (the serine is in bold and underlined) (SEQ ID NO:4):
(§4) 5. Phosphate Assay with Biological Substrates UDP, ATP, and dAMP (Native and HT)
(§5) Phosphatase activity with UDP, ATP and dAMP was assessed by measuring the release of […] with the Malachite green reagent (Sigma) at 40° C. and 50° C. Assay consisted of nucleotide phosphate in the concentration range 0-5 mM, 2 μg/mL AP in a final volume of 100 μL. The reaction was initiated in a 96-well microplate with the addition of enzyme and incubated for 5 min. After this time, 10 μL of reaction were mixed with 90 μL of water 25 μL of Malachite green solution. The microplate was shaken for 20 min at 25° C. and absorption was recorded at 620 nm. As standard pyrophosphate solution in water was used in the concentration range of 0-40 μM. Each experiment was done by triplicated at least.

Substrate in series [2]: Nc1ncnc2c1ncn2[C@H]1C[C@H](O)[C@@H](COP(=O)(O)O)O1
The description is as above. How it is done:
as §1, §2, §3, §4, §5

Substrate in series [3]: O=c1ccn([C@@H]2O[C@H](COP(=O)(O)OP(=O)(O)O)[C@@H](O)[C@H]2O)c(=O)[nH]1
Described as above. How it is done: as §1, §2, §3, §4, §5

Substrate in series [4]: Nc1ncnc2c1ncn2[C@@H]1O[C@H](COP(=O)(O)OP(=O)(O)OP(=O)(O)O)[C@@H](O)[C@H]1O
The series can be described thus: Phosphate assay (Malachite green) with UDP, ATP and dAMP, APHT ("HT"). Here is the method: as §1, §2
(§6) To further improve the thermal stability, a set of synthetic alkaline phosphatase genes where each amino acid was mutated to other possibilities one at a time was constructed and evaluated. Numerous single amino acids changes improving heat tolerance were combined and incorporated into a mutated alkaline phosphatase version yielding the alkaline phosphatase heat tolerant molecule designated APHT. […] (FIG. 4), and has a total of 16 amino acid changes from the original AP1 sequence (see FIG. 5A and B). In FIG. 5A, the AP1 with a serine mutation is designated as “AP Native” and is depicted in sequence with a leader sequence ASGFYVSGT (SEQ ID NO:13). The AP1 with leader sequence ASGFYVSGT is provided in SEQ ID NO:14). The APHT polypeptide with leader sequence ASGFYVSGT is provided in SEQ ID NO:15). In FIG. 5B, the AP1 with a serine mutation and without any leader sequence or leader peptide amino acids (SEQ ID NO:4) is aligned and compared with the APHT without any leader sequence or leader peptide amino acids (SEQ ID NO:1). The 16 amino acid changes in APHT are evident. The APHT amino acid sequence (excluding and without any leader sequence and starting with amino acids ESSN) is 97% identical to the sequence of AP1 (excluding and without any leader sequence and starting with amino acids ESSN).
(§7) The APHT sequence (SEQ ID NO: 1) is provided below with the amino acid mutations versus the AP1 sequence underlined and in bold.
as §4, §5

Substrate in series [5]: Nc1ncnc2c1ncn2[C@H]1C[C@H](O)[C@@H](COP(=O)(O)O)O1
Described as above. How it is done: as §1, §2, §6, §7, §4, §5

Substrate in series [6]: O=c1ccn([C@@H]2O[C@H](COP(=O)(O)OP(=O)(O)O)[C@@H](O)[C@H]2O)c(=O)[nH]1
Described as above. How it is done:
as §1, §2, §6, §7, §4, §5

Substrate in series [7]: Nc1ncnc2c1ncn2[C@@H]1O[C@H](COP(=O)(O)OP(=O)(O)OP(=O)(O)O)[C@@H](O)[C@H]1O
Kind of series: Dephosphorylation of substrates UDP, ATP and dAMP (Example 4, Table 11). Conditions: other: Table 11; conditions not given. How it is done: (§8) The inorganic phosphorous release (μM) from each of these sources by the heat tolerant HTAP was determined and is shown in FIG. 12. […] The inorganic phosphorous release (μM) was also assessed from the metabolically relevant compounds phosphocholine, phosphocreatine and phytic acid and compared with native AP. The heat tolerant HTAP was comparably active vs native AP in Pi release from each of compounds phosphocholine, phosphocreatine and phytic acid (data not shown).
(§9) Dephosphorylation of substrates UDP, ATP and dAMP was also assessed and determined.

Substrate in series [8]: Nc1ncnc2c1ncn2[C@H]1C[C@H](O)[C@@H](COP(=O)(O)O)O1
The description is as above. Particulars: other: Table 11; conditions not given. How it is done:
as §8, §9

Substrate in series [9]: O=c1ccn([C@@H]2O[C@H](COP(=O)(O)OP(=O)(O)O)[C@@H](O)[C@H]2O)c(=O)[nH]1
The description is as above. Conditions: other: Table 11; conditions not given. Here is the method:
as §8, §9

Setting [10] is: other: 40° C., Tris buffer pH 8, enzyme 2 μg/mL, pH 8.0, 40.0 °C.
Setting [11] is: other: 50° C., DEA buffer pH 10, enzyme 2 μg/mL, pH 10.0, 50.0 °C.

B1: Paenibacillus lentus alkaline phosphatase AP1 (designated "Native"), serine (S) replacement for an aspartic acid (D), SEQ ID NO: 4 (Paenibacillus lentus; D102S) (protein)
chain: ESSNGQSKNLIVLIGDGMGPAQVSAARYFQQHKNNINSLNLDPYYVGQATTYADRGEDGGHIVSGIVTSSASAGTAFATGNKTYNAAISVSNEDVSRPFASVLEAAELSGKSTGLVTTARITHATPAVYASHVRSRDNENAIAFQYLDSGIDVLLGGGESFFVTKEEKGKRNDKNLLPEFEAKGYKVVKTGQSLKSLSAKDAKVLGLFGGSHIAYVPDRSDETPSLAEMTSKALEILSTNENGFAIMIEGGRIDHAGHANDFPTMVQEALDFDEAFKVAIDFAKKDGNTSVVVTADHETGGLSLSRDNIYELNVDLWNKQKNSSESLVSALNEAKTIADVKKIVSDNTWITDLTNEEAQYILDGDGSSYKREGGYNAVISKRLLVGWSGHGHSAVDVGVWAYGPIADKVKGQIDNTRIATASAEVLGVDLKKATADLQSKYLYPKFKINRNKEVLFPAKPLAEALGGKYQAANGTATISGMSGTITVDLNAKKAKLSGNSSSITIDVDNDVLYLPLTAFSQITGQTLKWDALSERIMLK
Turning to B1, the Km was 110 µM in series [1] (setting [10]); 210 µM in series [1] (setting [11]); 113 µM in series [2] (setting [10]); 199 µM in series [2] (setting [11]); 74 µM in series [3] (setting [10]); 83 µM in [3] (setting [11]). The Vmax in [1] (setting [10]) was 336 IU/mg; in series [1] (setting [11]), 578 IU/mg; in series [2] (setting [10]), 356 IU/mg; in series [2] (setting [11]), 730 IU/mg; in series [3] (setting [10]), 447 IU/mg; in [3] (setting [11]), 608 IU/mg.

B2: Paenibacillus lentus alkaline phosphatase AP1 heat tolerant mutant APHT (designated "HT"), 16 amino acid changes from AP1, SEQ ID NO: 1 (Paenibacillus lentus; … (protein)
chain: ESSNGQSKNLIVLIGDGMGPAQVSAARYFQQHINNINSLNLDPYYVGQATTYADRGEDGGHIVSGIITSSAAAGTAIATGNKTNNAAISVSNEDVSRPFASVHEAAELSGKSTGLVTTARITHATPAVYGSHVRNRDNENAIAFQYLDSGIDVLLGGGESFFVTNEEKGKRNDKNLLPEFEAKGYKVVKNGQSLKSLSAKDAKVLGLFGGSHIPYVPDRSDETPSLAEMTSKALEILSTNENGFAIMIEGGRIDHAAHANDFPTMVQEMLAFDEAFKVAIDFAKKDGNTSVVVTADHETGGLSLGRDNIYELNVDLWNKQKNSSESLVSALNEAKTIADVKKIVSDNTWITDLTNEEAQYILDGDGSSYKREGGYNAVISKRLLVGWSGHGHSAVDVGVWAYGPIADKVKGQIDNTRIATASAEVLGVDLKKATADLQSKYLYPKFKINRNKEVLFPAKPLAEALGGKYQAANGTATISGMSGTITVDLNAKKAKLSGNSSEITIDVDNDVLYLPLTAFSQITGQTLKWDALSERIMLK
Consider B2, for which the Km in series [4] (setting [10]) turned out to be 97 µM; in series [4] (setting [11]), 283 µM; in [5] (setting [10]), 165 µM; in series [5] (setting [11]), 623 µM; in [6] (setting [10]), 93 µM; in series [6] (setting [11]) it was 121 µM. For the same protein, the Vmax in [4] (setting [10]) worked out at 358 IU/mg; in series [4] (setting [11]), 380 IU/mg; in series [5] (setting [10]), 262 IU/mg; in series [5] (setting [11]), 472 IU/mg; in series [6] (setting [10]), 631 IU/mg; in series [6] (setting [11]), 521 IU/mg.

B3: Paenibacillus lentus alkaline phosphatase AP1 heat tolerant mutant APHT (HTAP), SEQ ID NO: 1 (Paenibacillus lentus; … (protein)
chain: ESSNGQSKNLIVLIGDGMGPAQVSAARYFQQHINNINSLNLDPYYVGQATTYADRGEDGGHIVSGIITSSAAAGTAIATGNKTNNAAISVSNEDVSRPFASVHEAAELSGKSTGLVTTARITHATPAVYGSHVRNRDNENAIAFQYLDSGIDVLLGGGESFFVTNEEKGKRNDKNLLPEFEAKGYKVVKNGQSLKSLSAKDAKVLGLFGGSHIPYVPDRSDETPSLAEMTSKALEILSTNENGFAIMIEGGRIDHAAHANDFPTMVQEMLAFDEAFKVAIDFAKKDGNTSVVVTADHETGGLSLGRDNIYELNVDLWNKQKNSSESLVSALNEAKTIADVKKIVSDNTWITDLTNEEAQYILDGDGSSYKREGGYNAVISKRLLVGWSGHGHSAVDVGVWAYGPIADKVKGQIDNTRIATASAEVLGVDLKKATADLQSKYLYPKFKINRNKEVLFPAKPLAEALGGKYQAANGTATISGMSGTITVDLNAKKAKLSGNSSEITIDVDNDVLYLPLTAFSQITGQTLKWDALSERIMLK
With B3, the Km in series [7] was determined as 399 ± 68 µM; in series [8] it was 242 ± 27 µM; in series [9] it was 166 ± 14 µM. For the same protein, the figures for the kcat in [7], in series [8] and in series [9] were 0.1 ± 0.00333 s⁻¹, 0.132 s⁻¹ and 0.125 ± 0.00167 s⁻¹, respectively.

The values above are taken from patent US20250011738A1, “HEAT TOLERANT ALKALINE PHOSPHATASE” (BiomEdit, LLC, priority 2021, published 2025).
